Measured values from patent publication US11260100B2, “Compositions targeting the interaction domain between p27Kip1 and Brk and methods of use thereof to inhibit p27 Y phosphorylation and cdk4 activity” (The Research Foundation for the State University of New York, priority 2014, dated 2022).
Ends that are not written are not given here.

Assays:
metastatic breast cancer = metastatic breast cancer patients; cited from earlier work
Brk SH3 domain = biological target: T1, Brk SH3 domain (Homo sapiens, UniProt Q13882); assay: Phage-ELISA of GST-PxxP peptides (K1, K2, K3) against SH3 phages; assay type: binding; conditions: GST-fusion PxxP peptides
T1 construct: made in house; host or cells: phage supernatants
T1 sequence (Q13882 8-72 limits assumed): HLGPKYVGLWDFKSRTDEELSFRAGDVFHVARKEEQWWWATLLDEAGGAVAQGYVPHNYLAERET
Source text: (§1) FIGS. 1A-1C: Brk binds to p27 with high affinity in vitro. (FIG. 1A) p27 sequence highlighting the proline tracts of the three putative SH3 domain recruitment sites (PxxP): K1 (90-96), K2 (114-117) and K3 (188-195) (SEQ ID NO: 1). Phage-ELISA-analysis of SFK SH3 interactions with p27 (FIG. 1B) or p27's PxxP motifs (FIG. 1C). Data shown is the mean of three independent experiments±standard deviation after normalization and subtraction of the background binding to GST. (FIG. 1C) Recombinantly produced GST-K1, (amino acids 85-102 of SEQ ID NO: 1), −K2, (amino acids 108-123 of SEQ ID NO: 1), −K3 (amino acids 182-197 of SEQ ID NO: 1), or GST was immobilized in 96-well plates and analyzed for binding of the phages with the Brk-, Frk-, Yes-, or Abl-SH3 domain.
The following materials and methods are provided to facilitate the practice of the present invention. • Antibodies. Mouse Anti-p27(Kip1), BD Biosciences 610242. Cdk4 (DCS-35), p27 (N-20), C-terminal Brk (C-18), Brk (D-6), N-terminal Brk (N-20), c-Src (SC-18), Cyclin D1 (H 295), ARHGDIA (A-20), Santa Cruz Biotechnology. Anti-beta galactosidase antibody is from RND systems (af6464). Phosphotyrosine (P-Tyr-100), Cell Signaling Technology. Cdk4 (C-term, Cat. No. AP7520b), Abgent. GST (PRB-112C), Covance. Flag (F3165), Actin (A2066), Sigma Aldrich. Phospho Brk (Tyr342), EMD Millipore. pY74, Y88 and Y89 phospho-specific antibodies were generated by immunization of rabbits with phosphor-specific p27 peptides (Invitrogen). Negative- and positive-affinity chromatography with non-phosphorylated and phosphorylated peptides respectively, were performed to purify the antibodies. The antibodies are specific only for Y88,Y89, Y74 phosphorylation respectively (FIG. 2B, data not shown). • Enzymes. Gst-PTK6/Brk, GST-Src (SignalChem), His-Abl (New England Biolabs), His-PTK6/Brk, His-Src (Invitrogen) were used according to manufacturer's specifications. […] Phage supernatants were generated and binding of SH3-phages to recombinantly produced His-tagged-p27 or GST-PxxP-peptides was analyzed as described (28). • Construction of mutants and peptides. […]

[1] = biological target: T2, Brk phosphorylation of p27 (Homo sapiens, UniProt P46527+Q13882); assay: In vitro Brk phosphorylation of p27 with competitor, pY88/pY74 immunoblot; assay type: biochemical; conditions: increasing amounts of competitor
T2 construct: were incubated with p27 before the addition of full length Brk and ATP; We incubated full length p27 with Src or Brk in the presence of ATP; purchased SignalChem (GST-PTK6/Brk) or Invitrogen (His-PTK6/Brk); host or cells: p27 made in house in E. coli
Method: (§2) FIGS. 3A-3D: SH3:PxxP interaction is required for p27 Y88 phosphorylation. (FIG. 3A) p27 and Brk were incubated with ATP and with increasing concentrations of the PxxP competitor, F58-106, followed by immunoblot analysis with pY88, pY74 and p27 antibodies. Lane 5: +equimolar amount of F58-106 and p27, lane 6: ++2.5×F58-106, lane 7: +++5×F58-106, lane 8: ++++10×F58-106. (FIG. 3B) GST-Brk, p27 and F58-106 were incubated, immunoprecipitated with GST antibodies, followed by immunblot analysis with GST or p27 antibodies. (FIG. 3C) Increasing amounts of GST-SH3, GST-SH2 or GST peptides were incubated with p27, followed by immunoblot analysis with pY88, pY74, p27 and GST antibodies. Lanes 3, 5, 7: 2.5× competitor, lanes 4, 6, […]: 5× competitor. (FIG. 3D) GST-SH3, GST-SH2 or GST peptides were incubated with p27 or ΔK1/K3, followed by metal agarose chromatography and immunoblot analysis with GST and p27 antibodies. Loading control: GST peptides added to the reaction which are not representative of association.
FIGS. 8A-8G: Alt Brk (SEQ ID NO: 17) acts as an endogenous inhibitor of Brk. (FIG. 8A) Flag tagged WT p27 was incubated with increasing amount of Flag tagged Alt-Brk (lanes 5-7) in presence of equal amount of Brk. Lane 5: +equimolar Brk and Alt, lane 6: ++2.5×Alt, lane 7: +++5×Alt Immunoblot analysis was performed using Flag, pY88 and pY74 antibodies. (FIG. 8B) Alt-Brk expressing cells were plated on day 0. They were induced (+Tet) or uninduced (−Tet) on day 1 and cells were harvested on days 2, 3 and 4 Immunoblot analysis was performed using N-terminal Brk, C-terminal Brk, Rb, Ser780 pRb, Flag or Actin antibodies. (FIG. 8C) p27 was immunoprecipitated from induced (+) or un-induced (−) Alt Brk expressing cells and immunoblot analysis was performed with p27, pY88 and pY74 antibodies. (FIG. 8D) Alt Brk or TRE3G vector alone cells were treated with + or −Tet and cell counts were used to monitor proliferation. […] (FIG. 8F) p27 was immunoprecipitated from MCF7 cells that were either contact arrested (G0), asynchronous (A), or serum starved with 1% and 0% serum for 48 h. Immunoblot analysis was performed to probe for p27, pY88 and pY74. IgG and Mv1Lu lysates served as a negative control. (FIG. 8G) Expression of WT or mutant p27s was induced by adding Tetracycline to the culture media. p27 was immunoprecipitated from cell lysates and probed for p27, pY88 and pY74 Immunoprecipitation with IgG served as a negative control.
It appeared that the SH3:PxxP interaction was required for Y88 phosphorylation. […]
To directly verify this, we expressed a Flag-tagged Alt-Brk in bacteria and purified this 15 Kd protein (FIG. 8A). When p27 was incubated with Brk, Y88 and Y74 phosphorylation was detected by immunoblot analysis (FIG. 8A, lane 3). […]

WT p27 = biological target: T3, WT p27 (Homo sapiens, UniProt P46527); assay: Metal agarose chromatography of His-p27 with GST peptides; assay type: binding; conditions: absence of ATP
T3 construct: made in house; host or cells: E. coli
Method: as §2
(§3) We incubated the GST, GST-SH3, or GST-SH2 peptides with His-tagged versions of p27 and the ΔK1/K3 mutant, isolated complexes by metal agarose chromatography and performed immunoblot analysis with GST antibodies (FIG. 3D). […] However, this binding was independent of the PxxP K1 site (FIG. 3D, lane 3). […]

ΔK1/K3 p27 = biological target: T4, ΔK1/K3 p27 (Homo sapiens, UniProt P46527, K189A/K190A/P188A/P191A/P91A/P92A/P94A/P95A); assay: Metal agarose chromatography of His-ΔK1/K3 p27 with GST peptides; assay type: binding; conditions: absence of ATP
T4 construct: made in house; host or cells: E. coli
Method: as §2, §3

GST-Brk = biological target: T5, GST-Brk (Homo sapiens, UniProt Q13882); assay: GST immunoprecipitation of GST-Brk with p27 and/or F58-106; assay type: binding
T5 construct: this K1-containing peptide was sufficient to associate with full length Brk; purchased SignalChem
Method: as §2
We then performed the converse reaction, and increasing amounts of individual recombinant, GST-tagged pieces of Brk (GST-SH2, GST-SH3) or GST peptides were incubated with p27 before the addition of full length Brk and ATP. The reactions were probed by immunoblot analysis with pY88 and pY74 antibodies (FIG. 3C).

full-length p27 = biological target: T6, full-length p27 (Homo sapiens, UniProt P46527); assay: Phage-ELISA of SFK SH3 domain interactions with p27; conditions: phages carry many reiterated SH3 domains, which would enhance binding; read-out: Kd of interaction with full-length p27
T6 construct: made in house; host or cells: E. coli
Source text: as §1
The following materials and methods are provided to facilitate the practice of the present invention. • Antibodies. Mouse Anti-p27(Kip1), BD Biosciences 610242. Cdk4 (DCS-35), p27 (N-20), C-terminal Brk (C-18), Brk (D-6), N-terminal Brk (N-20), c-Src (SC-18), Cyclin D1 (H 295), ARHGDIA (A-20), Santa Cruz Biotechnology. Anti-beta galactosidase antibody is from RND systems (af6464). Phosphotyrosine (P-Tyr-100), Cell Signaling Technology. […] Phage supernatants were generated and binding of SH3-phages to recombinantly produced His-tagged-p27 or GST-PxxP-peptides was analyzed as described (28). • Construction of mutants and peptides. […]

T2 sequence (Q13882 whole entry): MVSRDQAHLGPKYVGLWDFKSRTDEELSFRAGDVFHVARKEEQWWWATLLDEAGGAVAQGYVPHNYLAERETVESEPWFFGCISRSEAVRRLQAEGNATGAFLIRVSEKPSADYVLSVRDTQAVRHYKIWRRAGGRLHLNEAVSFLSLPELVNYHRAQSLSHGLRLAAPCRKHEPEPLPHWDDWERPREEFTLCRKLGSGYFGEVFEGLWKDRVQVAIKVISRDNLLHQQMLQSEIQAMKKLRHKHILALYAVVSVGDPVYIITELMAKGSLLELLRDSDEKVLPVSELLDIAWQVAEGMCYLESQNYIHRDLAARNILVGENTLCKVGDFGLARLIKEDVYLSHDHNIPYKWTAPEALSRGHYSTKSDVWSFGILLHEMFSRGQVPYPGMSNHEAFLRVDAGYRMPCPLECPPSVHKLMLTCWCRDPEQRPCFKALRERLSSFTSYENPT
T2 sequence (P46527 whole entry): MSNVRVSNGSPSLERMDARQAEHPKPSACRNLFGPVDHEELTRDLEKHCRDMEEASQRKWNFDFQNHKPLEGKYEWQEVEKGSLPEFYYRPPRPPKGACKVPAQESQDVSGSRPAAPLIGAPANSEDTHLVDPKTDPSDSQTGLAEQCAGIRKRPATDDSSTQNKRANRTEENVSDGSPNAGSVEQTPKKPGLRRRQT
T4 sequence (P46527 whole entry P91A/P92A/P94A/P95A/P188A/K189A/K190A/P191A): as the sequence (P46527 whole entry) above, with P91A, P92A, P94A, P95A, P188A, K189A, K190A, P191A counted along it
T5 sequence (Q13882 whole entry): as the sequence (Q13882 whole entry) above
T6 sequence (P46527 whole entry, the tested form may be a part): as the sequence (P46527 whole entry) above
T3 sequence (P46527 whole entry): as above

## N#Cc1ccc(C(c2ccc(C#N)cc2)n2cncn2)cc1 [letrozole]
Metastatic breast cancer
  median PFS: 10.2 months

## K2: GST-fusion peptide, amino acids 108-123 of p27 (SEQ ID NO: 1) (DVSGSRPAAPLIGAPA; also: GST-fusion peptide; listed as Homo sapiens)
Brk SH3 domain
  interaction with Brk SH3 domain: No SH3 domains interacted

## GST-SH2: recombinant GST-tagged SH2 piece of Brk [reference compound]
[1]
  p27 Y74 phosphorylation by Brk: did not reduce
  p27 Y88 phosphorylation by Brk: did not reduce
WT p27
  association with WT p27: bound
ΔK1/K3 p27
  association with ΔK1/K3 p27: bound

## K3: GST-fusion peptide, amino acids 182-197 of p27 (SEQ ID NO: 1) (GSVEQTPKKPGLRRRQ; also: GST-fusion peptide; listed as Homo sapiens)
Brk SH3 domain
  interaction with Brk SH3 domain: strongly

## K1: GST-fusion peptide, amino acids 85-102 of p27 (SEQ ID NO: 1) (PEFYYRPPRPPKGACKVP; also: GST-fusion peptide; listed as Homo sapiens)
Brk SH3 domain
  interaction with Brk SH3 domain: weakly

## F58-106: Flagged tagged K1-site containing peptide, p27 residues 58 to 106 (RKWNFDFQNHKPLEGKYEWQEVEKGSLPEFYYRPPRPPKGACKVPAQES; also: Flag tag, site not given here)
[1]
  p27 Y74 phosphorylation by Brk: only slightly reduced
  p27 Y88 phosphorylation by Brk: decreased
GST-Brk
  association with GST-Brk: interacted

## SH3 domain of Brk: Brk SH3 domain displayed on phages (SEQ ID NO: 2)
full-length p27
  Kd: 250 nM
